# According to ChEMBL document CHEMBL6074635, “Replacement of the essential nitro group by electrophilic warheads towards nitro-free antimycobacterial benzothiazinones” (Eur J Med Chem, 2024):
# B1: Decaprenylphosphoryl-beta-D-ribose oxidase (Mycobacterium tuberculosis (strain ATCC 25618 / H37Rv)), P9WJF1 (protein)
# chain: MLSVGATTTATRLTGWGRTAPSVANVLRTPDAEMIVKAVARVAESGGGRGAIARGLGRSYGDNAQNGGGLVIDMTPLNTIHSIDADTKLVDIDAGVNLDQLMKAALPFGLWVPVLPGTRQVTVGGAIACDIHGKNHHSAGSFGNHVRSMDLLTADGEIRHLTPTGEDAELFWATVGGNGLTGIIMRATIEMTPTSTAYFIADGDVTASLDETIALHSDGSEARYTYSSAWFDAISAPPKLGRAAVSRGRLATVEQLPAKLRSEPLKFDAPQLLTLPDVFPNGLANKYTFGPIGELWYRKSGTYRGKVQNLTQFYHPLDMFGEWNRAYGPAGFLQYQFVIPTEAVDEFKKIIGVIQASGHYSFLNVFKLFGPRNQAPLSFPIPGWNICVDFPIKDGLGKFVSELDRRVLEFGGRLYTAKDSRTTAETFHAMYPRVDEWISVRRKVDPLRVFASDMARRLELL
# Experiments:
# [1] = substrate: CC(C)=CCC/C(C)=C/CC/C(C)=C/CC/C(C)=C/COP(=O)(O)OC1O[C@H](CO)[C@@H](O)[C@H]1O; assay: (§1) Substrate activity at recombinant Mycobacterium tuberculosis DprE1 extracted from Escherichia coli BL21(DE3) assessed as Km incubated for 60 mins by resazurin dye based fluorescence plate reader analysis
# [2] = substrate: CC(C)=CCC/C(C)=C/CC/C(C)=C/COP(=O)(O)O[C@@H]1O[C@H](CO)[C@@H](O)[C@H]1O; assay: as §1
protein,measurement,setting,value
B1,Km,[1],33 µM
same,Km,[2],740 µM
